Measured values as given in the supplement of paper PMC10567573.
± gives the standard deviation.

Assay: protein stability index of a GFP-peptide fusion (GPS, HEK-293T) (PSI 1-6); higher = more stable
Settings: c terminus: a fixed tail appended
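Note: 24-mer peptide tiles fused after GFP, lentivirally expressed, FACS-sorted into six equal bins by GFP/DsRed ratio, decoded by Illumina sequencing, PSI is the read-weighted mean bin number.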

| Sequence | protein stability index (treatment: DMSO) | protein stability index (treatment: MLN4924 1 uM, 8 h) |
| --- | --- | --- |
| SGSGFGSVSWWGLSPALDLQAESP [DNAAF3] | 2.69 ± 0.56 | 2.43 ± 0.097 |
| TSRFGSQCMQPNNIMGIENICELA [NR2F2] | 2.88 ± 0.28 | 2.74 ± 0.35 |
| GVEPSPSPIKPGDIKRGIPNYEFK [UFD1] | 4.25 ± 0.24 | 4.24 ± 0.24 |
| LSYNLYDLLRNTHFRGVSLNLTRK [DYRK1B] | 2.28 ± 0.36 | 2.15 ± 0.09 |
| YLSCLEELMKCQIIYPRQQLLTLR [TRIP13] | 2.68 ± 0.68 | 2.69 ± 0.36 |
| FSIGLGPMPWLVLSEIFPGGIRGR [SLC2A12] | 2.29 ± 0.67 | 2.51 ± 0.5 |
| KMGSYYINRTFFFDVHPPLGKMLI [POMT2] | 2.95 ± 0.75 | 3 ± 0.46 |
| SRTTCLFLHLRTHTEERPYECNHC [ZNF8] | 2.62 ± 0.45 | 2.8 ± 0.43 |
| QQQEPPLAMGTVSLGQLPLPPIPH [PLAGL1] | 4.33 ± 0.14 | 4.35 ± 0.15 |
| PRHQGHRVQPVKDTAHDFRAKCRN [TRIM35] | 4.57 ± 0.15 | 4.65 ± 0.24 |
| SPICLSTSLSLAQVGAKGDTANEI [SERPINB5] | 4.68 ± 0.15 | 4.54 ± 0.21 |
| TSSGLATASFRTSKYLLEEWFQNC [TEKT4] | 2.68 ± 0.21 | 2.7 ± 0.14 |
| CGERLSLGLSRAQPVQSKPQKASA [PDLIM7] | 3.85 ± 0.38 | 4.06 ± 0.33 |
| AKVDSSGVIDLFGDAFGSSASEPQ [SNAP91] | 4.47 ± 0.23 | 4.57 ± 0.19 |
| LQNEAQKRESFLKYKCLLQQLYYT [IQUB] | 2.16 ± 0.43 | 2.24 ± 0.21 |
| RRKRTYWNDSCGEDMEASDYELED [WEE1] | 4.37 ± 0.3 | 4.92 ± 0.27 |
| PQVRDWSHYFKIIEDLRAQIFANT [KRT18] | 2.52 ± 0.36 | 2.64 ± 0.46 |
| ETFLSFLEYLYTDSCCPAGIFQAM [RHOBTB3] | 2.96 ± 0.48 | 2.56 ± 0.35 |
| VGPRETEEKVRDLLWAKFTNSDTP [TOR1AIP2] | 4.14 ± 0.43 | 4.1 ± 0.3 |
| MKEQDLMCIKLHGVSKVGLRKIID [KLHL13] | 2.18 ± 0.53 | 2.15 ± 0.44 |
| NIPGDVLRAVEQAMGHSQDRLTTF [LRRC45] | 3.09 ± 0.14 | 3.19 ± 0.078 |
| PEEMATYLRYVRRLDFFEKPDYEY [CSNK1G1] | 2.34 ± 0.26 | 2.26 ± 0.55 |
| NLRVLVDCILRDTSEDLRLQCDAV [TEKT4] | 2.64 ± 0.57 | 2.46 ± 0.29 |

| Sequence | protein stability index (treatment: DMSO) | protein stability index (treatment: MLN4924 1 uM, 8 h) |
| --- | --- | --- |
| SEDGSYGTDVTRCICGFTHDDGYM [KMT2E] | 3.33 ± 0.42 | 3.36 ± 0.34 |
| MPPLLPLRLCRLWPRNPPSRLLGA [DNAJC4] | 2.29 ± 0.37 | 2.15 ± 0.11 |
| TGGAAGAGGAGRGEDEENREHRVR [KCTD13] | 5.24 ± 0.26 | 5.53 ± 0.32 |
| LKIDFGDSARADDARQLFVLAGAA [GNAI1] | 2.59 ± 0.37 | 2.68 ± 0.27 |
| KMEEDIKEEEEKDHNEAMKPEEPP [PCMTD1] | 5.57 ± 0.15 | 5.58 ± 0.31 |
| FPSSGRFWKLYIEAEVTILFYFFL [CSTF3] | 2.87 ± 0.66 | 2.35 ± 0.9 |
| VHPIIKRRQCRPEIRMWQTREKAK [PHTF1] | 3.15 ± 0.21 | 3.32 ± 0.13 |
| RLFEDVRSWMFRRGPLNSDRSDYF [TRIM43] | 2.54 ± 0.42 | 2.63 ± 0.13 |
| RAWEVDWFSLASVIFLLLFAPFIV [DHCR7] | 2.43 ± 0.45 | 2.65 ± 0.57 |
| QLLLGRLFRWPDLQHAVELKPLCG [SMAD6] | 2.12 ± 0.19 | 2.36 ± 0.17 |
| QPGAGFGMPPAGTGMPMMPQQPVM [SNAP91] | 3.71 ± 0.26 | 3.84 ± 0.3 |
| ACSEDSLFLRCSLRHKDEEEEDDD [DRICH1] | 5.32 ± 0.27 | 5.24 ± 0.16 |
| LSWYFLLCVNYFFYGETVADYFAT [CDS1] | 3.11 ± 0.46 | 3.51 ± 0.53 |
| PSAPEALHSLPGVSLSLENRELWK [TBX6] | 3.94 ± 0.19 | 3.96 ± 0.33 |
| ASAQPLPAPEAAHTTGPTGSAPNS [TFE3] | 5.35 ± 0.18 | 5.46 ± 0.15 |
| SLHPESGQENDATSPHFSTRHEGS [CD69] | 5.4 ± 0.23 | 5.33 ± 0.14 |
| KKMESEEDSNWEKSPDNEDSGDSK [GOLPH3L] | 5.63 ± 0.23 | 5.59 ± 0.26 |
| QDTLELESPSLTSTPVCSQKVVVT [MYBL2] | 4.59 ± 0.18 | 4.63 ± 0.11 |
| GGPGGRGPWSCENFNPLLVAGGVA [CEND1] | 2.82 ± 0.23 | 2.72 ± 0.18 |
| QNQVDELERKFRCQQEQLFQTRQE [LRRC45] | 5.04 ± 0.22 | 5.02 ± 0.12 |
| NGVRVFPPAMPPPATHLSPALAPV [TRIM9] | 3.22 ± 0.28 | 3.34 ± 0.14 |
| ERKKVQIRSMDPSALASDRFNLIL [DCAF4] | 2.29 ± 0.16 | 2.5 ± 0.23 |
